T1: Smc4 (S. cerevisiae condensin subunit) (S. cerevisiae, UniProt Q12267 1-1418)
T1 sequence: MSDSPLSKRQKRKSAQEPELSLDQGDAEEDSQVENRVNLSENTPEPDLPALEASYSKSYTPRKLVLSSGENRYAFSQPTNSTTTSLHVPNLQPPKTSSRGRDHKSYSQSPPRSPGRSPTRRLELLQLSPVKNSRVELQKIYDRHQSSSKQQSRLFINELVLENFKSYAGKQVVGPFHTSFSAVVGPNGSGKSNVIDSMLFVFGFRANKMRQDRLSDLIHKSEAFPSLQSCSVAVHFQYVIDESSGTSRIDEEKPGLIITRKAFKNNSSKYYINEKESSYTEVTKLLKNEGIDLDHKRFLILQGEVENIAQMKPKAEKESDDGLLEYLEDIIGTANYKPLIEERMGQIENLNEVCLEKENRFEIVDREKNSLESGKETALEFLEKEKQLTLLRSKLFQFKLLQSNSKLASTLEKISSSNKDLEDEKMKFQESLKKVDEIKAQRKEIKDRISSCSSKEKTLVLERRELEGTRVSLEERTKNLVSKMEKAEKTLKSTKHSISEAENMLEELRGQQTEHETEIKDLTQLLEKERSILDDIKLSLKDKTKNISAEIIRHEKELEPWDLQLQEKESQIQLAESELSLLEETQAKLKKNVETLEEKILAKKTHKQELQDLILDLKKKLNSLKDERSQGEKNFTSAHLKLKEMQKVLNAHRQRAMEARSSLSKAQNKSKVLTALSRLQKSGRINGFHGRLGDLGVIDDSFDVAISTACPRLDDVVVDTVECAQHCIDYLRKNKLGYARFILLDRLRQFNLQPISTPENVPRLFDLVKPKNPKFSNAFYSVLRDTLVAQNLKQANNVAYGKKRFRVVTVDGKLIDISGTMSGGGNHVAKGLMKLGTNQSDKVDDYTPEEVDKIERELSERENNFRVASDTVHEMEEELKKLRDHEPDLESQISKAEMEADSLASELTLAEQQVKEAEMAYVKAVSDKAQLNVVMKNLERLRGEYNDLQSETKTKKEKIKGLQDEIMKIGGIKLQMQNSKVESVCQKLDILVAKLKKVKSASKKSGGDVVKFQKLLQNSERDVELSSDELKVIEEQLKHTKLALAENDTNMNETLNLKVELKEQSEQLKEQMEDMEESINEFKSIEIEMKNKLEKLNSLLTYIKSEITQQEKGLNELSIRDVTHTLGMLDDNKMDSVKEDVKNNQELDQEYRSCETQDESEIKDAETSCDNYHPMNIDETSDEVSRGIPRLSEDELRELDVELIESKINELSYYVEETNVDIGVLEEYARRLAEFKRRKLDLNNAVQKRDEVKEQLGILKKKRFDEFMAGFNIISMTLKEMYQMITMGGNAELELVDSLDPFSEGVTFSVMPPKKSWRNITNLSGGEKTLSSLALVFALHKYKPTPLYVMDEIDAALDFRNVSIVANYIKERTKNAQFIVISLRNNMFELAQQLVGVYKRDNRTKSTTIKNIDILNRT

B1: Smc2 (S. cerevisiae condensin subunit) (natural protein)
chain: MKVEELIIDGFKSYATRTVITDWDPQFNAITGLNGSGKSNILDAICFVLGIASMSTVRASSLQDLIYKRGQAGVTKASVTIVFDNTDKSNSPIGFTNSPQISVTRQVVLGGTSKYLINGHRAPQQSVLQLFQSVQLNINNPNFLIMQGKITKVLNMKPSEILSLIEEAAGTKMFEDRREKAERTMSKKETKLQENRTLLTEEIEPKLEKLRNEKRMFLEFQSTQTDLEKTERIVVSYEYYNIKHKHTSIRETLENGETRMKMLNEFVKKTSEEIDSLNEDVEEIKLQKEKELHKEGTISKLENKENGLLNEISRLKTSLSIKVENLNDTTEKSKALESEIASSSAKLIEKKSAYANTEKDYKMVQEQLSKQRDLYKRKEELVSTLTTGISSTGAADGGYNAQLAKAKTELNEVSLAIKKSSMKMELLKKELLTIEPKLKEATKDNELNVKHVKQCQETCDKLRARLVEYGFDPSRIKDLKQREDKLKSHYYQTCKNSEYLKRRVTNLEFNYTKPYPNFEASFVHGVVGQLFQIDNDNIRYATALQTCAGGRLFNVVVQDSQTATQLLERGRLRKRVTIIPLDKIYTRPISSQVLDLAKKIAPGKVELAINLIRFDESITKAMEFIFGNSLICEDPETAKKITFHPKIRARSITLQGDVYDPEGTLSGGSRNTSESLLVDIQKYNQIQKQIETIQADLNHVTEELQTQYATSQKTKTIQSDLNLSLHKLDLAKRNLDANPSSQIIARNEEILRDIGECENEIKTKQMSLKKCQEEVSTIEKDMKEYDSDKGSKLNELKKELKLLAKELEEQESESERKYDLFQNLELETEQLSSELDSNKTLLHNHLKSIESLKLENSDLEGKIRGVEDDLVTVQTELNEEKKRLMDIDDELNELETLIKKKQDEKKSSELELQKLVHDLNKYKSNTNNMEKIIEDLRQKHEFLEDFDLVRNIVKQNEGIDLDTYRERSKQLNEKFQELRKKVNPNIMNMIENVEKKEAALKTMIKTIEKDKMKIQETISKLNEYKRETLVKTWEKVTLDFGNIFADLLPNSFAKLVPCEGKDVTQGLEVKVKLGNIWKESLIELSGGQRSLIALSLIMALLQFRPAPMYILDEVDAALDLSHTQNIGHLIKTRFKGSQFIVVSLKEGMFANANRVFRTRFQDGTSVVSIM
B2: Ycs4 (S. cerevisiae condensin HEAT-repeat subunit) (natural protein)
chain: MSGFSLSEYLTKFQTTDRESYPRLQDPSRELNVIIDQLAVSPEQIDASPDSLEALIDLCHDFPHLTPKLQTQLSYLISSSLSNLSKDIKANLSSNVNFTEIGGLIPQWKRHLEEYGYLIQVLLTFLQDELHKVSSQSTNLNRSAKNSKNDSANVELFKRDCNQMENLLESITKLLEINLSKIFQTTPEKDLFIGLFTRPLFVLLEIEPVTKVSSLKMFIQRILAMCVKNHGQSSSIQSSLMTNLTYFLHLSVFNAELLKLLNDEYNYPQLTEDILKEISTRVFNAKDTTGPKAISNFLIKLSELSPGIMLRQMNLVITLLNNSSITLRCSVVEACGNIVAELAQDPQTMEHYKQQIAVLIELLEERFQDSNPYVRTKAIQGCSKICDLSSKFNKSKAKFTSLAVRSLQDRSSLVRRNSVKLLSKLLLKHPFKAIHGSQLRLSEWEEYLKGSESQLNSTLKKVESQETLNDTIERSLIEEEVEQDEGQCRTELEGSFNKSAELSRIENEVENINATNTSVLMKLKLMIVYYKDAISFIKEIHKSIELISNLLFSKNRNEVLESMDFLVLADAFDIELSEFGIKKMLHLVWMKGTNDEGTSISVHLIECYKQLFLTAPDSCNMQEKAAHIAKNLINLSIGASIADLASLEQLLGMMYEQKLIDQHVINILWAIYNSASKASMQKEQNVNNRDSEKGFSKEQIHGSIIILGMLSLADNEIALKGLESLLNIGLGAVGLKDLTLCRYSCLALERMVPKRSTIITKAINQELEDVAVKKLYAIIINYTKDNEYYPMCEQALSALFTISSKPDILATDLIREKTMMTFGKPEEEDSILSLEQSSRVVSLSQLLFIVGQVAIKTLVYLEKCEAEFKKRKIEAETRNGKVKNQGADVTNTTQDNGGDKELEMIGGTNEDDFTDAIQFVKENELLFGEKSILGKFCPIVEEIVSNSSRFSDPMLQRTATLCLEKLMCLSSKYCEKSLPLLITVMEKSPDPTIRSNAVLGLGDMAVCFNNLVDENTDYLYRRLHDENLMVQRTCLMTVTFLILAGQVKVKGQLGEMAKCLDNPDQGISDMCRLFFTELASKDNAIYNGFIDIFSNLSSDDLLGKESFKKIIKFLLTFIDKERHQKQLNEKLVGRLRKCETQKQWDDIAFVLNNLPYKNEDVTALLEQGFKVVSAKE

Assays:
[1] = target: B2; assay: cross-linking
[2] = target: T1, Smc4 (S. cerevisiae condensin subunit); assay: cryo-EM structure

| Binder | binding result [1] | binding result [2] |
| --- | --- | --- |
| B1 | binds | binds |
| B2 |  | binds |

From PMC7610691 (Nature structural & molecular biology, 2020)
